Results as given in patent publication US20260209364A1 (NB HEALTH LABORATORY, published 2026).
Numbering of substitutions follows the chain as printed.

T1: human CCR7 (human, UniProt P32248 25-378)
T1 sequence: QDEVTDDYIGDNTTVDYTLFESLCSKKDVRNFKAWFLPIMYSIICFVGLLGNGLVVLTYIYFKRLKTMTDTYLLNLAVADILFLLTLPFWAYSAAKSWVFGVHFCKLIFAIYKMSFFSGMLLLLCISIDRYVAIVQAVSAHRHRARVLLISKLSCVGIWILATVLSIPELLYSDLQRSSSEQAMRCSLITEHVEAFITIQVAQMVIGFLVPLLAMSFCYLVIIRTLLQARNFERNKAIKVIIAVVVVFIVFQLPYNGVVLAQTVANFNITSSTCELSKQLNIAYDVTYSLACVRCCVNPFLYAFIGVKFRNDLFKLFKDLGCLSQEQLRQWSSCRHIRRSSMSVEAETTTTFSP

B1: chimeric anti-CCR7 antibody VH0/VL0 (antibody, human IgG1, kappa, V domains shown)
VH: EVQLQQSGPDLVKPGASVKISCKASGYSFTGYYMHWVKQSHGKSLEWIGRVNPNNGGTSYNKKFKVKAILTVDRSSSTAYMEFRSLTLEDSAVYYCARSESNNFYAMDYWGQGKSVTVSS
VL: DILMTQTPLSLPVSLGDQVSISCRSSQSLVHSNGNTYLCWYLQKPGQSPKLLIYRVSNRFSGVPDRFSGSGSGTDFTLKISRVEAEDLGVYFCFQGSHVPHTFGSGTKLEIKR
B2: humanized anti-CCR7 antibody NB007-03 (antibody, human IgG1, kappa, V domains shown)
VH: EVQLVQSGPEVVKPGASVKLSCKASGYSFTGYYMHWVKQAPGQGLEWIGRVNPNNGGTSYNKKFKVRVTLTVDRSISTAYMEFSRLRSDDTVVYYCARSESNNFYAMDYWGQGTSVTVSS
VL: B1 VL with L3V, P12S, S14T, D17Q, Q18P, V19A, K50Q, L88V, F92Y, L109V
B3: humanized anti-CCR7 antibody NB007-01 (antibody, human IgG1, kappa, V domains shown)
VH: B2 VH with N55Q, L70I
VL: DIVMTQSPLSLSVTPGQPASISCRSSQSLVHSNGNTYLCWYLQKPGQSPQLLIYRVSNKFSGVPDRFSGSGSGTDFTLKISRVEAEDVGVYYCFQGSHVPHTFGQGTKVEIKR
B4: humanized anti-CCR7 antibody NB007-02 (antibody, human IgG1, kappa, V domains shown)
VH: B2 VH with N55Q
VL: B3 VL with K59R

How the values were obtained:
human CCR7 [1] = biological target: T1, human CCR7; test: cell-based or functional assay
human CCR7 [2] = biological target: T1, human CCR7; test: cell-based or functional assay; remark: listed apart in the source

Binder | IC50 (nM), inhibition of intracellular Ca2+ signaling in human CCR7 gene-transfected cells stimulated with 5x10^-8 M CCL21 (human CCR7 [1]) | IC50, inhibition of CCL19-dependent cell migration of Granta-519 cells (human CCR7 [2]) | IC50, inhibition of CCL19-induced intracellular Ca2+ signaling in hCCR7 gene-transfected cells (human CCR7 [2]) | IC50, inhibition of CCL21-induced intracellular Ca2+ signaling in hCCR7 gene-transfected cells (human CCR7 [2]) | half maximal inhibitory concentration (IC50), CCL21-induced intracellular Ca2+ signaling in MJ cells (human CCR7 [2])
B1 | 16.2 nM |  |  |  | 
B2 | 12.5 nM |  |  |  | 
B3 | 18.2 nM | 25.5 nM | 21.4 nM | 17.8 nM | 14.8 nM
B4 | 16.4 nM |  |  |  | 
